Measured values published in PMC8444507.

Columns and labels:
[1] = molecular target: SARS-CoV spike receptor-binding domain (S-RBD), wild-type (SARS-CoV) (UniProt P59594)
[2] = molecular target: SARS-CoV-2 spike receptor-binding domain (S-RBD), wild-type (SARS-CoV-2) (UniProt P0DTC2)

For “ACE2[W27/Y330]-Fc (from UniProt Q9BYF1 19-615) (Fc fusion)”, the IC50 of entry inhibition, SARS-CoV pseudovirus on HEK293T-ACE2 cells [1] was 1.04 µg/mL and the IC50 of entry inhibition, wild-type SARS-CoV-2 pseudovirus on HEK293T-ACE2 cells [2] was 0.25 µg/mL.

Substance “ACE2[W19/Y330]-Fc (from UniProt Q9BYF1 19-615) (Fc fusion)” has an IC50 of entry inhibition, SARS-CoV pseudovirus on HEK293T-ACE2 cells [1] of 0.34 µg/mL and an IC50 of entry inhibition, wild-type SARS-CoV-2 pseudovirus on HEK293T-ACE2 cells [2] of 0.09 µg/mL.

With “ACE2[W19/W27/Y330]-Fc (from UniProt Q9BYF1 19-615) (Fc fusion)” the IC50 of entry inhibition, SARS-CoV pseudovirus on HEK293T-ACE2 cells [1] was 0.49 µg/mL and the IC50 of entry inhibition, wild-type SARS-CoV-2 pseudovirus on HEK293T-ACE2 cells [2] was 0.53 µg/mL.
